This is an account of results in paper PMC2802489.

Holding throughout (assay): purified protein
The subject of one series is CC(C)C=O. The note with it: 0.25 mM NADH, 50 mM MOPS pH 7.0, 37 °C, 100 nM enzyme.
A further series deals with CC=O. The note with it: 0.25 mM NADH, 50 mM MOPS pH 7.0, 37 °C, 100 nM enzyme.
Substrate in series [1]: CC=O
The class given is biochemical, Saccharomyces cerevisiae. The note with it: 0.25 mM NADH, 50 mM MOPS pH 7.0, 37 °C, 100 nM enzyme.

Substrate in series [2]: CC=O
Format: biochemical, Escherichia coli. The following applies: 0.25 mM NADPH, 50 mM MOPS pH 7.0, 37 °C, 100 nM enzyme.

Substrate in series [3]: CC(C)C=O
The class given is biochemical, Escherichia coli. The note with it: 0.25 mM NADPH, 50 mM MOPS pH 7.0, 37 °C, 100 nM enzyme.

Usually Km stands for the substrate concentration at which the rate is half of its maximum. As a reminder, the kcat is the maximal rate divided by the concentration of active sites. Usually kcat/Km stands for the second-order rate constant that governs catalysis at low substrate concentration. Consider “AdhA (Lactococcus lactis subsp. lactis Il1403)”, for which, in the series with CC(C)C=O, the Km turned out to be 9100 ± 2900 µM, the kcat is 6.6 ± 0.2 s⁻¹ and the specificity constant (kcat/Km) is 800 M⁻¹ s⁻¹. Also, in the series on CC=O, the Michaelis constant (Km) is 500 ± 200 µM, the kcat came to 10 ± 0.3 s⁻¹ and the catalytic efficiency (kcat/Km) is 20900 M⁻¹ s⁻¹.

B1: Adh2 (Saccharomyces cerevisiae S288C) (protein)
chain: SIPETQKAIIFYESNGKLEHKDIPVPKPKPNELLINVKYSGVCHTDLHAWHGDWPLPTKLPLVGGHEGAGVVVGMGENVKGWKIGDYAGIKWLNGSCMACEYCELGNESNCPHADLSGYTHDGSFQEYATADAVQAAHIPQGTDLAEVAPILCAGITVYKALKSANLRAGHWAAISGAAGGLGSLAVQYAKAMGYRVLGIDGGPGKEELFTSLGGEVFIDFTKEKDIVSAVVKATNGGAHGIINVSVSEAAIEASTRYCRANGTVVLVGLPAGAKCSSDVFNHVVKSISIVGSYVGNRADTREALDFFARGLVKSPIKVVGLSSLPEIYEKMEKGQIAGRYVVDTSK
As to B1, in “purified protein [1]”, the Michaelis constant (Km) turned out to be 140 ± 20 µM, the kcat was determined as 6.6 ± 0.5 s⁻¹ and the specificity constant (kcat/Km) turned out to be 46900 M⁻¹ s⁻¹.

B2: YqhD (Escherichia coli K-12) (protein)
chain: NNFNLHTPTRILFGKGAIAGLREQIPHDARVLITYGGGSVKKTGVLDQVLDALKGMDVLEFGGIEPNPAYETLMNAVKLVREQKVTFLLAVGGGSVLDGTKFIAAAANYPENIDPWHILQTGGKEIKSAIPMGCVLTLPATGSESNAGAVISRKTTGDKQAFHSAHVQPVFAVLDPVYTYTLPPRQVANGVVDAFVHTVEQYVTKPVDAKIQDRFAEGILLTLIEDGPKALKEPENYDVRANVMWAATQALNGLIGAGVPQDWATHMLGHELTAMHGLDHAQTLAIVLPALWNEKRDTKRAKLLQYAERVWNITEGSDDERIDAAIAATRNFFEQLGVPTHLSDYGLDGSSIPALLKKLEEHGMTQLGENHDITLDVSRRIYEAAR
Take B2: in “purified protein [2]”, the Km came to 27600 ± 12400 µM, the turnover number (kcat) turned out to be 1.1 ± 0.1 s⁻¹ and the kcat/Km was determined as 50 M⁻¹ s⁻¹. Further, in “purified protein [3]”, the Michaelis-Menten constant (Km) came to 1800 ± 1300 µM and the catalytic constant (kcat) amounted to 1 ± 0.1 s⁻¹.
